The results in this text go back to patent US20130089554A1 (EMERGENT PRODUCT DEVELOPMENT SEATTLE, published 2013).

The target in assay [1] is T1, RON Sema-PSI-AFH protein (human, UniProt Q04912 25-568).
T1 construct: Produced in CHOK1SV cells; also called soluble RON Sema-PSI-AFH; not shown: c-terminal tag including avidin, 3xFLAG and 6x histidine tags
T1 chain: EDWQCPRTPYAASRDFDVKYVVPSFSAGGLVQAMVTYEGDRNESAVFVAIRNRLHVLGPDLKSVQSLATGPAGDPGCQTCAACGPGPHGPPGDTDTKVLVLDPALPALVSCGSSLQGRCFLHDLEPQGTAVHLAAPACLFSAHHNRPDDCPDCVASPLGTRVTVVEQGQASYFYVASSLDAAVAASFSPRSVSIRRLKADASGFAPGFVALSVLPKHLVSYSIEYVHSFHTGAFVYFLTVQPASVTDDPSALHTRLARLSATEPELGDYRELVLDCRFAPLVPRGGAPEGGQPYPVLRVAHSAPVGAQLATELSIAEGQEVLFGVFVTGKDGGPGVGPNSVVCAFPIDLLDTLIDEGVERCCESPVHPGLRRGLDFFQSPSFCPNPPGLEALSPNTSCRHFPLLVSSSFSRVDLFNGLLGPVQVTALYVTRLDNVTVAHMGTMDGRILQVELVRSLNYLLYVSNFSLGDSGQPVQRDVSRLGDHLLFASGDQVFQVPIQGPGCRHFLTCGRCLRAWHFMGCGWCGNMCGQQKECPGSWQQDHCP
As to the kind of experiment: SPR (Biacore T100); Interceptor captured by immobilized anti-human Fc, soluble RON Sema-PSI-AFH flowed over. As for the experimental part: (§1) The binding kinetics of RON-f murine antibody, SMIP and Interceptor to soluble RON Sema-PSI-AFH were determined using a Biacore T100 (GE Healthcare, Piscataway, N.J.). Anti-RON murine antibody was captured using immobilized anti-mouse Fc polyclonal antibody while the SMIP and Interceptor were captured by anti-human Fc monoclonal antibody. The capture antibodies, both from GE Healthcare, were covalently conjugated to a carboxylmethyl dextran surface (CM4) via amines using N-ethyl-N′-(3-dimethylaminopropyl)-carbodiimide hydrochloride and N-hydroxysuccinimide. The unoccupied sites of the activated surface were blocked by ethanolamine. […] During each cycle, a single concentration of soluble RON Sema-PSI-AFH was injected and then allowed to dissociate. At the end of each cycle, the surface was regenerated gently using 3M MgCl₂ which dissociates protein bound to the capture antibodies. Signal associated with binding to the reference cell was used to subtract for bulk refractive changes and blank (buffer-only) injections were used to correct for drift and system noise.
(§2) Kinetic parameters and affinities were determined using BIAevaluation software. The kₐ (M⁻¹s⁻¹) and kd (s⁻¹) rates of the interaction were used to calculate the affinity constant, KD (M), of the antibody/receptor interaction. The KD is defined as the ratio of the kd and kₐ constants (kd/kₐ). The RON-f01 murine antibody was tested in a single experiment while the RON-f02 SMIP and RON-f03 Interceptor molecules were each tested in three independent experiments. RON-f molecules were captured on a sensor chip with immobilized anti-Fc while soluble RON Sema-PSI-AFH protein was flowed over the surface at varying concentrations.
On the technique in general: Surface plasmon resonance follows binding to a sensor surface in real time, without labels.

The target in assay [2] is T2, human RON (recepteur d'origine Nantaise, MST1R), full length on cells (human, UniProt Q04912 25-1400).
T2 construct: Over-expressed on transfected NIH/3T3 cells, or native on BxPC-3 and MDA-MB-453 cells; also called native human RON
The assay is described as follows: flow cytometry, NIH/3T3 cells transfected with human RON, hybridoma supernatant. An excerpt:
NIH/3T3 cells transfected with human or macaque RON or empty vector, were dissociated with trypsin and stained at 1.6×10⁵ cells/sample on ice with hybridoma supernatants or purified antibodies diluted in Staining Buffer (2% FBS in Dulbecco's PBS). Unlabeled murine IgG (SouthernBiotech, Birmingham, Ala.) and the DX07 anti-RON β-chain antibody (Santa Cruz Biotechnology, Santa Cruz, Calif.) were employed as negative and positive controls respectively. Murine antibodies were detected with R-PE-conjugated goat anti-mouse IgG (SouthernBiotech). Samples were analyzed on a BD FACSCalibur flow cytometer fitted with an HTS using PlateManager and CellQuest Pro software (BD Biosciences, San Jose, Calif.). Data was plotted using FlowJo software (Tree Star, Ashland, Oreg.).
NIH/3T3 cells transfected with empty vector (dashed), human RON (dotted) or Macaca mulatta RON (solid) were stained with secondary antibody alone (FIG. 1A), 1 mg/ml murine IgG (FIG. 1B), 1 mg/ml DX07 anti-RON antibody (FIG. 1C), RON-e01 anti-RON hybridoma supernatant (FIG. 1D) or RON-f01 anti-RON hybridoma supernatant (FIG. 1E).

Assay [3] concerns the target T3, recombinant RON Sema-PSI protein (R&D Systems #1947-MS) (human, UniProt Q04912 25-571).
T3 construct: Bought protein, expressed in NS0 cells; not shown: carboxyl-terminal histidine tag
The assay is described as follows: ELISA, plate coated with 1 µg/ml recombinant RON Sema-PSI. As for the experimental part:
(§3) To determine binding of murine antibodies to the Sema-PSI domain of RON, 96-well EIA/RIA microplates were coated with 1 μg/ml recombinant RON Sema-PSI (R&D Systems #1947-MS, Minneapolis, Minn.). This protein includes the Sema and PSI domains of human RON (Glu 25-Leu 571; see SEQ ID NO:784) coupled to a carboxyl-terminal histidine tag and expressed in the NS0 mouse myeloma cell line. Plates were blocked with 10% FBS in DPBS prior to adding hybridoma supernatants diluted […] in serum diluent. Murine antibodies bound to recombinant RON Sema-PSI were detected as described above.
(§4) “Diluent only” samples represent background binding in each assay when only serum diluent was run as the sample. As a positive control for IgG measurement and recombinant RON Sema-PSI binding, 250 ng/ml of an anti-human RON antibody (R&D Systems #MAB691, Minneapolis, Minn.) was tested in both ELISAs.
On the technique in general: ELISA stands for enzyme-linked immunosorbent assay.

Assay [4] addresses T3, recombinant RON Sema-PSI protein (R&D …). The assay is described as follows: ELISA, plate coated with 1 µg/ml recombinant RON Sema-PSI, hybridoma supernatants. As for the experimental part: as §3, §4
The target of assay [5] is T1, RON Sema-PSI-AFH protein. The assay is described as follows: SPR (Biacore T100); antibody captured by immobilized anti-mouse Fc, soluble RON Sema-PSI-AFH flowed over. As for the experimental part:
as §1, §2

B1: RON-f03 Interceptor (4C04 scFv, Interceptor Pair 2) (other)
chain 1: DIQMTQSPASQSASLGESVTITCLASQTIGTWLAWYQQKPGKSPQLLIYAATSLADGVPSRFSASGSGTKFSFKIDSLQSEDFVSYYCQQLYNTPWTFGGGTKLEIKGGGGSGGGGSGGGGSQIQLQQSGPELVKPGTSVKISCKASDYTLTDFYMNWVRQKPGQGLEWIGRIYPGTDKTRYNEKFRDKAILTVDTSSSTAYMQLSSLTSEDTAVYFCARSAYYGNYVAMDYWGQGTSVTVSSSASTKGPSVFPLAPSSKSTSGGTAALGCLVKDYFPEPVTVSWNSGALTSGVHTFPAVLQSSGLYSLSSVVTVPSSSLGTQTYICNVNHKPSNTKVDKKVRTEPKSSDKTHTCPPCPSGAPELLGGPSVFLFPPKPKDTLMISRTPEVTCVVVDVSHEDPEVKFNWYVDGVEVHNAKTKPREEQYNSTYRVVSVLTVLHQDWLNGKEYKCKVSNKALPAPIEKTISKAKGQPREPQVYTLPPSRDELTKNQVSLTCLVKGFYPSDIAVEWESNGQPENNYKTTPPVLDSDGSFFLYSKLTVDKSRWQQGNVFSCSVMHEALHNHYTQKSLSLSPGKSRTVAAPSVFIFPPSDEQLKSGTASVVCLLNNFYPREAKVQWKVDNALQSGNSQESVTEQDSKDSTYSLSSTLTLSKADYEKHKVYACEVTHQGLSSPVTKSFNRGE
chain 2: TVAAPSVFIFPPSDEQLKSGTASVVCLLNNFYPREAKVQWKVDNALQSGNSQESVTEQDSKDSTYSLSSTLTLSKADYEKHKVYACEVTHQGLSSPVTKSFNRGERTEPKSSDKTHTCPPCPSGAPELLGGPSVFLFPPKPKDTLMISRTPEVTCVVVDVSHEDPEVKFNWYVDGVEVHNAKTKPREEQYNSTYRVVSVLTVLHQDWLNGKEYKCKVSNKALPAPIEKTISKAKGQPREPQVYTLPPSRDELTKNQVSLTCLVKGFYPSDIAVEWESNGQPENNYKTTPPVLDSDGSFFLYSKLTVDKSRWQQGNVFSCSVMHEALHNHYTQKSLSLSPGKSRASTKGPSVFPLAPSSKSTSGGTAALGCLVKDYFPEPVTVSWNSGALTSGVHTFPAVLQSSGLYSLSSVVTVPSSSLGTQTYICNVNHKPSNTKVDKKV
notes: also called RON-f03 2nd generation interceptor
For B1, in assay [1], the Kd – broadly, the equilibrium constant for the complex coming apart – was 0.156 nM; the koff – broadly, the first-order rate constant of dissociation – turned out to be 6.78e-05 s⁻¹; the kon (as a rule, the rate constant with which the complex forms) is 434000 M⁻¹ s⁻¹.

B2: RON-e01 murine antibody (11H09 hybridoma) (antibody, V domains shown)
VH: QVQLQQSGAELAKPGASVKMSCKSSGYTFTSYWIHWVKERPGQGLEWIGYIYPTTGYTESNQKFKDKATLTADKSSSTAYMQLSSLTSEDSAVYYCFLLRPWYFDVWGAGTTVTVSS
VL: DIQMTQSPSSLSASLGERVSLTCRASQDIGSSLSWLQQEPDGTIKRLIYSTSSLDSGVPKRFSGSRSGSDYSLTISSLESEDFVDYYCLQYASSPWTFGGGTKLEIK
notes: Murine monoclonal antibody from a hybridoma, used as supernatant or purified; also called RON-e01 Antibody
On to B2, for which the values for the binding result in assay [2] and in assay [3] were “binds” and “no binding”, respectively.

B3: RON-f01 murine antibody (4C04 hybridoma) (antibody, V domains shown)
VH: QIQLQQSGPELVKPGTSVKISCKASDYTLTDFYMNWVRQKPGQGLEWIGRIYPGTDKTRYNEKFRDKAILTVDTSSSTAYMQLSSLTSEDTAVYFCARSAYYGNYVAMDYWGQGTSVTVSL
VL: DIQMTQSPASQSASLGESVTITCLASQTIGTWLAWYQQKPGKSPQLLIYAATSLADGVPSRFSASGSGTKFSFKIDSLQSEDFVSYYCQQLYNTPWTFGGGTKLEIK
notes: Murine monoclonal antibody from a hybridoma; also called RON-f01 Antibody
B3: the binding result in assay [2] is recorded as “binds”. Moreover, the binding result in assay [4] was “binds”. In assay [5], this molecule came in with a dissociation constant (Kd) of 0.15 nM, a koff of 9.49e-05 s⁻¹ and a kon of 632000 M⁻¹ s⁻¹.
